Measurements as given in patent US20190330337A1, “Tunable Chimeric Antigen Receptors” (AUTOLUS LIMITED, priority 2016, published 2019).
Entries after “also recorded” stand apart in the source; their conditions may differ.

Assays:
streptavidin = streptavidin (Streptomyces avidinii, UniProt P22629); details: biotin mimicking peptide binding streptavidin; read-out: affinity; cited from earlier work
[1] = test system: SupT1 cells engineered to express CD33; test: Activation of TetCAR BW5 T-cells challenged with SupT1 cells expressing CD33; type: cell-based
From the text: A bicistronic construct was expressed in BW5 T cells as a single transcript which self-cleaves at the 2A site to yield a signalling component which comprises TiP fused via a flexible linker to the endodomain of CD3-Zeta; and a receptor component which comprises a CD33 recognizing scFv, a spacer derived from the Fc domain of IgG1, a CD4 derived transmembrane and intracellular domain; and TetR (FIG. 19a). A control was also expressed which was identical except that TiP was absent from the signalling component (FIG. 19b).
The BW5 T-cells were challenged with wild-type SupT1 cells or SupT1 cells engineered to express CD33 in the absence of tetracycline or in the presence of increasing concentrations of tetracycline.
Control TetCAR which lacks the TiP domain was also transduced into BW5. Once again, these T-cells were challenged with wild-type SupT1 cells or SupT1 cells engineered to express CD33 in the absence or in the presence of increasing concentration of Tetracycline.

CD22 [2] = target: T1, CD22 (Homo sapiens, UniProt P20273); test: Biacore affinity determination of CD22 binders; type: binding; details: scFv format, FIG. 6, result in words
Method: A CD19-binder (CD19ALAb) was identified, humanised and the binding affinities of both murine and humanised IgGs and scFvs were identified and compared with the “gold-standard” anti-CD19 binder, fmc63. In parallel, and a CD22-binder (CD22ALAb) was identified, humanised and the binding affinities of both murine and humanised IgGs and scFvs were identified and compared with the “gold-standard” anti-CD22 binder, M971.
Experiments were performed on a Biacore T200 instrument using HBS-P as running and dilution buffer. BIAevaluation software Version 2.0 was used for data processing. For binding kinetics, mouse anti-human IgG or goat anti-mouse IgG was covalently coupled to a CM5 Sensor Chip. IgG or scFv-Fc proteins were captured, and various concentrations of interaction partner protein injected over the flow cell at a flow rate of 30 μl/min. Kinetic rate constants were obtained by curve fitting according to a 1:1 Langmuir binding model. Bulk refractive index differences were subtracted using a blank control flow cell in which capture antibody had been immobilized to the same level as the active surface. A double reference subtraction was performed using buffer alone.

CD22 [3] = target: T1, CD22; test: SPR (Biacore T200), scFv-Fc captured on anti-IgG CM5 chip, interaction partner protein injected, 1:1 Langmuir fit
CD19 (human) = CD19 (human) (UniProt P15391); test: as above
Chain of CD19 (human) (P15391 20-291 limits assumed): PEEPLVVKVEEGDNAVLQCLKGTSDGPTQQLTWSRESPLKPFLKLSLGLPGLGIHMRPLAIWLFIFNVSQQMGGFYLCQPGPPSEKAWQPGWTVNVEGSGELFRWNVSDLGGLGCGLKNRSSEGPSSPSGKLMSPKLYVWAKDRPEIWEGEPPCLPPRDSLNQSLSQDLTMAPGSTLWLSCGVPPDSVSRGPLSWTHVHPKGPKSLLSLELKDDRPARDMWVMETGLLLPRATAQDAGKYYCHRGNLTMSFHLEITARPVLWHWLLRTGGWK

Chain of streptavidin (P22629 37-163 limits assumed): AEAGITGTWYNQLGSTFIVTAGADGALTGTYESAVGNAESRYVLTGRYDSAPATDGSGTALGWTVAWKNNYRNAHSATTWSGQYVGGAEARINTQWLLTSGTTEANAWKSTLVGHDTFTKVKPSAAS

## Biotin mimicking peptide DVEAWLDERVPLVET (SEQ ID NO: 30) (Biotin mimicking peptide, long nanotag)
streptavidin
  Kd: 0.0036 µM

## Biotin mimicking peptide DVEAWLGAR (SEQ ID NO: 31) (Biotin mimicking peptide, short nanotag)
streptavidin
  Kd: 0.017 µM

## Biotin mimicking peptide CHPQGPPC (SEQ ID NO: 35) (Biotin mimicking peptide, ccstreptag)
streptavidin
  Kd: 0.23 µM

## CN(C)[C@@H]1C(O)=C(C(N)=O)C(=O)[C@@]2(O)C(O)=C3C(=O)c4c(O)cccc4[C@@](C)(O)[C@H]3C[C@@H]12 [tetracycline, reference compound]
[1]
  concentration of tetracycline at which activation is fully inhibited: 100 nM

## Biotin mimicking peptide WRHPQFGG (SEQ ID NO: 32) (Biotin mimicking peptide, streptag)
streptavidin
  Kd: 72 µM

B1: murine CD22ALAb: Murine CD22ALAb scFv, SEQ ID No. 25 (protein)
scFv: QVQLQQPGAELVRPGASVKLSCKASGYTFTNYWINWVKQRPGQGLEWIGNIYPSDSFTNYNQKFKDKATLTVDKSSSTAYMQLSSPTSEDSAVYYCTRDTQERSWYFDVWGAGTTVTVSSDVVMTQTPLSLPVSLGDQASISCRSSQSLVHSNGNTYLHWYLQKPGQSPKLLIYKVSNRFSGVPDRFSGSGSGTDFTLKISRVEAEDLGLYFCSQSTHVPWTFGGGTKLEIK
modifications: CAR, Murine CD22ALAb scFv sequence
CD22 [2]
  binding affinity to CD22: significantly higher binding affinity to CD22 than the gold-standard CD22-binding antibody, M971

B2: Humanised CD22ALAb scFv (scFv, part only; not given: Fc part and VH-VL linker, not shown: another chain or arm of the molecule; a dimerising Fc or GST; small tags and cut ends)
scFv: EVQLVESGAEVKKPGSSVKVSCKASGYTFTNYWINWVRQAPGQGLEWIGNIYPSDSFTNYNQKFKDRATLTVDKSTSTAYLELRNLRSDDTAVYYCTRDTQERSWYFDVWGQGTLVTVSSDIVMTQSPATLSVSPGERATLSCRSSQSLVHSNGNTYLHWYQQKPGQAPRLLIYKVSNRFSGVPARFSGSGSGVEFTLTISSLQSEDFAVYYCSQSTHVPWTFGQGTRLEIK
CD22 [3]
  Kd: 0.032 µM
  koff: 0.00226 s⁻¹
  kon: 68300 M⁻¹ s⁻¹

B3: humanised CD22ALAb: Humanised CD22ALAb scFv, SEQ ID No. 26 (protein)
scFv: EVQLVESGAEVKKPGSSVKVSCKASGYTFTNYWINWVRQAPGQGLEWIGNIYPSDSFTNYNQKFKDRATLTVDKSTSTAYLELRNLRSDDTAVYYCTRDTQERSWYFDVWGQGTLVTVSSDIVMTQSPATLSVSPGERATLSCRSSQSLVHSNGNTYLHWYQQKPGQAPRLLIYKVSNRFSGVPARFSGSGSGVEFTLTISSLQSEDFAVYYCSQSTHVPWTFGQGTRLEIK
modifications: CAR, Humanised CD22ALAb scFv sequence
CD22 [2]
  binding affinity to CD22: comparable binding affinity to CD22 to murine CD22ALAb; also recorded: significantly higher binding affinity to CD22 than the gold-standard CD22-binding antibody, M971

B4: Murine CD19ALAb scFv (scFv, part only; not given: Fc part and VH-VL linker, not shown: another chain or arm of the molecule; a dimerising Fc or GST; small tags and cut ends)
scFv: QVQLQQSGAELVRPGSSVKISCKASGYAFSSYWMNWVKQRPGQGLEWIGQIWPGDGDTNYNGKFKGKATLTADESSSTAYMQLSSLASEDSAVYFCARRETTTVGRYYYAMDYWGQGTTVTVSSDIQLTQSPASLAVSLGQRATISCKASQSVDYDGDSYLNWYQQIPGQPPKLLIYDASNLVSGIPPRFSGSGSGTDFTLNIHPVEKVDAATYHCQQSTEDPWTFGGGTKLEIK
CD19 (human)
  Kd: 0.00185 µM
  koff: 0.000328 s⁻¹
  kon: 178000 M⁻¹ s⁻¹
